Data published in US8673270B2, “RGD-containing peptidomimetics and uses thereof” (priority 2008, dated 2014).
Like-named read-outs stand apart in the source and are kept apart here.

Legend:
Toxicity study on rats = format: in vivo; details: 50 mg/kg into tail vein; for Necrosis or inflammation in liver or kidneys: after five days
Procedure: The various conjugates at dose of 50 mg/kg were injected into the tail vein during 1-2 min.

human αvβ3 integrin = target: T1, human αvβ3 integrin (Homo sapiens, UniProt P05106+P06756); test: Competitive binding experiments (determination of IC50) against c[RGDfK]-biotin, ELISA; details: competition with c[RGDfK]-biotin (10^−3M), coated integrin
T1 construct: purchased Chemicon
Procedure: (viii) Integrin binding test by ELISA. Nunc immuno-module strips (Nunclon, Cat#167008, Daniel Biotech, Israel) were coated for overnight with 2 μg/ml human integrin αvβ3 (Chemicon, Cat#CC1020, Biotest, Israel) dissolved in 0.06 M carbonate-bicarbonate buffer. Strips were blocked for 2 hrs at RT with 2% bovine serum albumin (BSA) (Sigma, Cat#A-9647, Israel) in phosphate buffered saline (PBS) (Biological Industries, Israel). A mixture of c[RGDfK]-biotin (10^−3M) and a test compound at different concentrations (10^−2, 10^−3, 10^−4 and 10^−5M) diluted in assay buffer (50 mM Tris HCl, pH=7.7, 0.5% BSA, 0.15 M NaCl, 0.01% Tween 20) was added to the coated strips and was incubated overnight at RT with shaking. After washing with PBS, anti-biotin antibodies labeled by alkaline phosphatase (1:200) (Miltenyi Biotec, Almog, Israel) were added and incubated for 1 hr at RT. The samples were incubated with p-nitrophenyl phosphate substrate (p-NPP, Calbiochem, Mercury, Israel) and read at 405 nm.
(xvi) Competitive binding experiments (determination of IC50). Immuno-module strips MAXISORP (Nunc, Danyel Biotech, Israel) were coated with 50 μl/well of 2 μg/ml human αvβ3 integrin (Chemicon, USA) overnight and blocked with 2% BSA (Sigma, Israel) for 2 hrs at RT. After wash with Tris buffered saline-Tween (TBST) buffer, a mixture of RGD peptide c[RGDfK]-biotin (10^−3M) and the tested RGD-conjugate at different concentrations (10^−2, 10^−3, 10^−4 and 10^−5 M) was added in triplicates and was incubated overnight and shaken at RT. After wash with PBS buffer, anti-biotin antibodies labeled by alkaline phosphatase (1:200) (Miltenyi Biotec, Germany) were added and incubated for 1 hr at RT. The samples were incubated with p-NPP substrate and read at 405 nm on Multiscan Spectrum (Labotal, Israel). The data were plotted to graph of dependence of binding percent out of concentration of RGD-conjugate and IC50 value was determined. […]

[1] = system: MDA-MB-231-RFP human breast cancer cells; test: In-vivo breast cancer model, orthotopic large necrotic tumor, IVIS imaging; design: species or system CD-1 nude mice; details: six days post injection, necrotic tumors 1-1.5 cm^3
Procedure: (xii) In-vivo breast cancer model. Female CD-1 nude mice (6-8 weeks old, 20-25 g, obtained from Harlan Biotech Israel, Rehovot, Israel) were implanted with MDA-MB-23′-RFP human breast cancer cells (4×10^6 cells/mouse). […] When tumors reached the size of 1-1.5 cm^3 for necrotic tumors, mice were anaesthetized by IP injection of 30 μl mixture of 85:15 ketamine:xylazine, and the test conjugate (15 mg/kg) was then injected to the tail vein.
In this study, the specific accumulation pattern of conjugates 1, 4 and 41 in orthotopic primary lesions of mammary carcinoma model, monitored by fluorescence signal generated by the tumor, and the fluorescence signal generated by these conjugates were examined. The localization of the conjugates in the tumors as time progress was also determined. Animals were treated as described in Materials and Methods, and fluorscence of both tumor cells and conjugates 1, 4 and 41 was monitored by IVIS® 100 imaging system from day 1 to 7.
FIGS. 1A, 1B and 1C show the accumulation patterns of conjugates 1, 4 and 41, respectively, in orthotopic human breast MDA-MB-231-RFP primary large tumor in the mammary pad of CD-1 nude female mice, using the Xenogen IVIS® System. Whole animal images° were recorded concomitantly using filter sets comprising excitation filter 500-550 nm and emission filter 575-650 nm. Background filter set for subtraction the tissue auto fluorescence: excitation filter 460-490 nm and emission filter 575-650 nm. Photosensitizer imaging main filter set: excitation filter 665-695 nm, emission filter 810-875 nm.

[2] = system: MLS human ovarian carcinoma cells; design: species or system CD-1 nude mice; details: mouse, in vivo
Source text: (ix) In-vivo ovarian carcinoma model. Female CD-1 nude mice (7-9 weeks old, 23-28 gr) were anaesthetized and subcutaneously (SC) implanted with MLS human ovarian carcinoma cells (obtained from Prof. M. Neeman, the Weizmann Institute of Science, Israel) suspension (2-3×10^6 cells/mouse). Tumors reached treatment size, diameter 6-8 mm, within 2-3 weeks.
Animals were anaesthetized by gas with mixture of 7:3 N2O:O2 containing 2% isofluorane (Medeva, Bethlehem, Pa.) or by intraperitoneal (IP) injection with mixture of 5 mg/kg ketamine (Rhone Merieux, Lyon, France) and 1 mg/kg pompun (Bayer, Leverkusen, Germany) (85:15, v:v).
(xiii) Fluorescent imaging protocol for BTA-RGD conjugates. Test compounds (8 mg/kg) were injected into the tail vein of IP anaesthetized tumor-bearing mice. Images of gas-anaesthetized animals were taken at 6, 8, 10, 12, 14 and 24 hrs (in some cases also at 48 and 72 hrs) after injection using IVIS® 100 Series Imaging System. The excitation and emission filters were set in the IVIS to 710-760 nm and to 810-860 nm, respectively. The emission filter with wavelength closest to the emission peak of the compound was selected among available filters in the standard configuration of IVIS.
(xiv) Fluorescent imaging protocol for FITC-RGD conjugates. Test compounds (8 mg/kg) were injected into the tail vein of IP anaesthetized tumor-bearing mice. Images of gas-anaesthetized animals were taken at 6 and 8 hrs after injection. Animals were sacrificed at 8 hrs, the organs (tumor, kidney, liver) were excited and images of the organs were taken using IVIS® 100 Series Imaging System. The excitation and emission filters were set in the IVIS to 445-490 nm and to 515-575 nm, respectively. The emission filter with wavelength closest to the emission peak of FITC was selected among available filters in the standard configuration of IVIS.

[3] = system: LNCaP prostate cancer cells; test: In-vivo prostate cancer model, IVIS imaging; details: for Fluorescent level in excised organs: 14 hrs after injection, prostate and ovarian tumor-bearing mice; for Time of highest fluorescent level in tumor after injection: LNCaP prostate tumor
[4] = system: MLS human ovarian carcinoma cells; test: Integrin binding assay (in vitro), fluorescence imaging of cells incubated with conjugate; format: cell-based; details: 100 μM/well, 3 hrs at 37° C., IVIS imaging
Procedure: (xv) In-vitro binding assay. MLS human ovarian carcinoma cells were cultured as monolayers in minimum essential medium (MEM-alpha) containing 1 g/l D-glucose, pH 7.4, 10% fetal calf serum (FCS), glutamine (2 mM), penicillin (0.06 mg/ml) and streptomycin (0.1 mg/ml), and were grown at 37° C. in 5% CO2-humidified atmosphere. At 48 hrs before experiment, cells were seeded at 6 well plates (3×10^5 cells/well).
Expression of αvβ3 integrin on MLS cells. The cells were grown on cover slips. Following overnight serum starvation, fixation with 4% paraformaldehyde (Sigma, Israel) and permeabilization with 0.2% Triton X-100 (Sigma, Israel), cells were incubated in blocking solution (10% of horse serum) (Biological Industries, Israel) for 1 hr at RT. Cells were then incubated with mouse anti-human αvβ3 integrin antibodies (1:100) (Chemicon, Biotest, Israel) for 1 hr at RT. Secondary rabbit FITC-labeled anti-mouse IgG (1:200) (Sigma, Israel) were applied to cells for 1 hr at RT. Imaging was performed by fluorescent microscope (Nikon Optiphot2, Japan) equipped with a digital camera (DVC Company, Inc., Austin, Tex.).
In vitro binding assay. RGD-conjugates were initially dissolved in DMSO to yields 4×10^−3 M. The stock solutions were then diluted 1:40 in culture medium and added into MILS or HT29 cells (100 μM/well). Cells were incubated at 37° C. in 5% CO2-humidified atmosphere for 3 hrs. Cells were then washed 3 times with PBS and images were performed on a Xenogen IVIS® 100 Series Imaging System. The excitation and emission filters set in the IVIS for BTA-RGD were 710-760 nm and 810-860 nm, respectively, and for FITC-RGD were 445-490 nm and 515-575 nm, respectively.

[5] = system: LNCaP prostate cancer cells; details: mouse, in vivo

| SMILES | Survival, behavior and motility (Toxicity study on rats) | Necrosis or inflammation in liver or kidneys (Toxicity study on rats) | IC50 (human αvβ3 integrin) [µM] | Localization of conjugate within breast tumor [1] | Time of highest fluorescent level in tumor after injection [2] [h] | Time the conjugate stayed in the tumor [2] | Fluorescent level in excised organs [3] | Time of highest fluorescent level in tumor after injection [3] [h] | Integrin binding assay (in vitro) [4] | Time of highest fluorescent level in tumor after injection [5] [h] |
| --- | --- | --- | --- | --- | --- | --- | --- | --- | --- | --- |
| CCC1c2cc3[nH]c(c(CC(=O)OC)c4nc(cc5[nH]c(cc(n2)C1C)c(C(C)=O)c5C)C(C)C4CCC(=O)N[C@H]1CNC(=O)[C@H](CC(=O)O)NC(=O)CNC(=O)[C@H](CCCNC(=N)N)NC(=O)NCCNC1=O)c(C(=O)NCCS(=O)(=O)O)c3C (some centres unmarked) [Conjugate 1] | Animals were survived and did not show any behavior or motility problems | no evidence of necrosis or inflammation was found in the liver or the kidneys | 100 | Accumulate in the Necrotic Core of MDA Necrotic Tumors | 8 to 11 | up to 48 hrs | high fluorescent level observed in the liver and kidney | 8 to 11 | Binding |  |
| CCC1c2cc3[nH]c(c(CC(=O)OC)c4nc(cc5[nH]c(cc(n2)C1C)c(C(C)=O)c5C)C(C)C4CCC(=O)N[C@H]1CCCNC(=O)[C@H](CC(=O)O)NC(=O)CNC(=O)[C@H](CCCNC(=N)N)NC(=O)NCCNC1=O)c(C(=O)NCCS(=O)(=O)O)c3C (some centres unmarked) [Conjugate 4] | Animals were survived and did not show any behavior or motility problems | no evidence of necrosis or inflammation was found in the liver or the kidneys | 300 | Accumulate in the Necrotic Core of MDA Necrotic Tumors | 8 to 14 | up to 48 hrs | high fluorescent level observed in the liver and kidney | 8 to 14 | Binding |  |
| CCC1c2cc3[nH]c(c(CC(=O)OC)c4nc(cc5[nH]c(cc(n2)C1C)c(C(C)=O)c5C)C(C)C4CCC(=O)NCCCC[C@@H]1NC(=O)N[C@@H](Cc2ccccc2)C(=O)NC[C@@H](C(N)=O)NC(=O)[C@H](CC(=O)O)NC(=O)CNC(=O)[C@H](CCCNC(=N)N)NC1=O)c(C(=O)NCCS(=O)(=O)O)c3C (some centres unmarked) [Conjugate 41] | Animals were survived and did not show any behavior or motility problems | no evidence of necrosis or inflammation was found in the liver or the kidneys | 100 | Accumulate in the Necrotic Core of MDA Necrotic Tumors | 8 to 12 | ≤ 24 h |  |  | In vitro: binding | 8 to 12 |
